Experimental data taken from US20200385465A1 (SHANGHAI NOVAMAB BIOPHARMACEUTICALS, published 2020).
Each block holds one molecule with its values, some of them ahead of it.

What was measured:
[1] = target: T1, human full-length CD47 protein (human, UniProt Q08722 19-323); test: flow cytometry blocking assay, antibody together with hSIRPa (ECD)-Fc-Biotin on CD47 stable cells, SA-PE detection
T1 construct: whole, on cells; also called CD47 stably transferred cells; CD47 on the surface of erythrocyte

[2] = target: T1, human full-length CD47 protein; test: flow cytometry blocking assay, antibody together with 5 ug hSIRPa (ECD)-Fc-Biotin on hCD47 stable cells, SA-PE detection
[3] = target: T2, CD47 (rat), coated antigen protein (rat, UniProt P97829 19-140, limits assumed); test: ELISA, coated antigen, anti-HA and alkaline phosphatase detection
T2 construct: also called rat CD47; murine-derived CD47
T2 sequence (looked up): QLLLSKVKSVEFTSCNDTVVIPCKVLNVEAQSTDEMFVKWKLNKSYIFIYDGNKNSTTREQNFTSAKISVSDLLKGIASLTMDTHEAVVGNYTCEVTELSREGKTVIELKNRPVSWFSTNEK
Procedure: (§1) The specificity of the single domain antibody was determined based on the absorption value.

[4] = target: T3, CD47 (mouse), coated antigen protein (mouse, UniProt Q61735 19-140, limits assumed); test: as above
T3 construct: also called mouse CD47; murine-derived CD47
T3 sequence (looked up): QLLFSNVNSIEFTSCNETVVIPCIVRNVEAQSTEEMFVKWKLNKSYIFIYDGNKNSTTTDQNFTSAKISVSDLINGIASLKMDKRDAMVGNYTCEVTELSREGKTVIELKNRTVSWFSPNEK
Procedure: as §1

[5] = target: T1, human full-length CD47 protein; test: competition flow cytometry on CD47 stably transfected cells, antibody titrated against 5 µg hSIRPa (ECD)-Fc-Biotin
Procedure: 100 uL was added in each sample, and a negative control (hIgG4) was set at the same time. […] (2) The cells were washed twice with PBS, SA-PE of eBioscience was added. It was incubated for 20 min at 4° C., and the cells were washed twice with PBS and then detected by flow cytometry (BD FACS Calibur), using graphpad prism 6 software for data processing.

percent of cells positive for SIRPa-biotin (quadrant Q2) in the presence of the antibody [1]: 97.3%
percent of cells positive for SIRPa-biotin (quadrant Q2) in the presence of the antibody at 1ug/ml [2]: 97.2%
Molecule: negative control antibody

binding result [3]: no binding
binding result [4]: no binding
B1: humanized CD47 single domain antibody (Nb1902) expressed from E. coli vector pMECS (VHH)
VHH: QVQLQESGGGLVQPGGSLRLSCAASGYAYTSDCMGWFRQTPGKGLEGVALIYTPGNSTNYADSVKGRFTISQDNSKSTVYLQMNSLRAEDTAMYYCAARRGACSLRLPFFYWGQGTLVTVSS
notes: also called humanized single domain antibody; not shown: C-terminal tag stretch from the pMECS vector (the HA tag used for detection and any other vector-encoded tag)

IC50 [5]: 12.3 µg/mL
B2: control antibody B6H12 (antibody)
chain: EVQLVESGGDLVKPGGSLKLSCAASGFTFSGYGMSWVRQTPDKRLEWVATITSGGTYTYYPDSVKGRFTISRDNAKNTLYLQIDSLKSEDTAIYFCARSLAGNAMDYWGQGTSVTVSSGGGGSGGGGSGGGGSDIVMTQSPATLSVTPGDRVSLSCRASQTISDYLHWYQQKSHESPRLLIKFASQSISGIPSRFSGSGSGSDFTLSINSVEPEDVGVYYCQNGHGFPRTFGGGTKLEIK
